Experiments:
[1] = target: HIV-1 NL4-3 wild-type protease (PR) tagged with CFP or YFP (HIV-1 (NL4-3)); assay: FRET or BRET; as a1, cells cultured with 10 nM DRV added with the transfection
[2] = target: HIV-1 NL4-3 wild-type protease (PR) tagged with CFP or YFP (HIV-1 (NL4-3)); assay: FRET or BRET; FRET-based HIV-1 expression assay; COS-7 cells cotransfected with CFP- and YFP-tagged protease clones, 72 h, no DRV; acceptor photobleaching, CFP^A/B ratio > 1 means dimerization; confocal microscope, room temperature

With “HIV-1 NL4-3 wild-type protease (PR) tagged with CFP or YFP (enzyme)” the CFP^A/B ratio [1] was 1.04 and the CFP^A/B ratio [2] was 1.07.

— article PMC5844992
